In assay [1] the target is T1, polypeptide C2 (amino acid sequence of FIG. 4C).
T1 chain: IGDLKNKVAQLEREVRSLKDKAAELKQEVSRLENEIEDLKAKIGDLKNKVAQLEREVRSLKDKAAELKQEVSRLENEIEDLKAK
Briefly: surface plasmon resonance, one species immobilized onto a gold film. The protocol: Next, the interaction of polypeptide A2 with polypeptides B2 and C2, when both of the components were free in solution and when one species was immobilized onto a gold film, was examined. The immobilization tests were performed to measure the rates of association and dissociation between the complexes. Surface plasmon resonance was used to detect minute changes in refractive index that accompanied a specific binding event in the immediate vicinity of the metal surface. […] After an initial increase in refractive index due to solvent exchange, it is seen that the rate of association for the A2-B2 complex was more rapid and that the equilibrium response was achieved sooner. […] For the A2-C2 interaction, kass=3.46×10^3, kdiss=[…], and K_a=1.45×10^6.

In assay [2] the target is T2, polypeptide B2 (amino acid sequence of FIG. 4B).
T2 chain: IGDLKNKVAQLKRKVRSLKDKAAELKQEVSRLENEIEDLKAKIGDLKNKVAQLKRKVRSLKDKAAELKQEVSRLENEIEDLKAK
Kind of assay: turbidity at 400 nm on mixing at equal concentrations; gel analysis of the precipitate. The text has this:
First, the interaction between polypeptides A2 and B2 was investigated using turbidity measurements at 400 nm. […] When the polypeptides were mixed at equal concentrations, a rapid increase in turbidity was seen. This was attributed to specific heterodimer formation, which subsequently associated into higher order structures that precipitated in solution. […] No similar increase in the turbidity of the homodimer solutions was observed prior to mixing.

B1: polypeptide A2 (amino acid sequence of FIG. 4A) (designed binder)
chain: IGDLENEVAQLEREVRSLEDEAAELEQKVSRLKNEIEDLKAEIGDLENEVAQLEREVRSLEDEAAELEQKVSRLKNEIEDLKAE
Take B1: the binding result in assay [1] and in assay [2] was “binds” each time.

The values above are taken from US5712366, “Fabrication of nanoscale materials using self-assembling proteins” (The United States of America as represented by the …, dated 1998).
